From the DeepSol protein solubility set

test: soluble on expression in E. coli; label from the status in PepcDB or PDB records

| Sequence | soluble on expression in E. coli |
| --- | --- |
| MNADGWLADTRSSYDTVAVSYADQLRGALAGTPYLRAALELFAGMIHTAGGGPVADVGCGPGHVTAHLHGLGVDAFGIDLSPAMIDVARRDHPDLRFEVGSMTDLNLADASVTALLAFWSLIHVPDDAIPAVFGHFRRVVRPGGPLLLGFHIGDESRLKTEGYGGHPMKVHVHHRQPVQVTAWLRDAGFTVEAQWLLGLDGHIPGAVLFAHRQSLEHHHHHH | not soluble |
| MNAHVTSREGVNEFDDGIVIVGGGLAAARTAEQLRRAGYSGRLTIVSDEVHLPYDRPPLSKEVLRSEVDDVALKPREFYDEKDIALRLGSAAVSLDTGEQTVTLADGTVLGYDELVIATGLVPRRIPSLPDLDGIRVLRSFDESMALRKHASAARHAVVVGAGFIGCEVAASLRGLGVDVVLVEPQPAPLASVLGEQIGQLVTRLHRDEGVDVRTGVTVAEVRGKGHVDAVVLTDGTELPADLVVVGIGSTPATEWLEGSGVEVDNGVICDKAGRTSAPNVWALGDVASWRDPMGHQARVEHWSNVADQARVVVPAMLGTDVPTGVVVPYFWSDQYDVKIQCLGEPHATDVVHLVEDDGRKFLAYYERDGVLVGVVGGGMAGKVMKVRGKIAAGAPIAEVLDQTQA | soluble |
| MNALARRAAGLLLGTLCLPLAAFAADVQPTHEFILDNGLKVVVREDHRAPVVVSQIWYKVGSSYETPGQTGLSHALEHMMFKGSAKVGPGEASRILRDLGADENAFTSDDYTAYYQVLARDRLPVALELEADRLASLRLPADEFSREIEVIKEERRLRTDDQPNAKAFELFRAMAYPASGYHTPTIGWMADLERMKVEELRHWYESWYAPNNATLVVVGDVTADEVKGLAQKYFGNIPKRA | not soluble |
| MNALLSNPFKERLRKGEVQIGLWLSSTTAYMAEIAATSGYDWLLIDGEHAPNTIQDLYHQLQAVAPYASQPVIRPVEGSKPLIKQVLDIGAQTLLIPMVDTAEQARQVVSATRYPPYGERGVGASVARAARWGRIENYMAQVNDSLCLLVQVESKTALDNLDEILDVEGIDGVFIGPADLSASLGYPDNAGHPEVQRIIETSIRRIRAAGKAAGFLAVAPDMAQQCLAWGANFVAVGVDTMLYSDALDQRLAMFKSGKNGPRIKGSY | soluble |
| MNARKAPEFPAWPQYDDAERNGLVRALEQGQWWRMGGDEVNSFEREFAAHHGAAHALAVTNGTHALELALQVMGVGPGTEVIVPAFTFISSSQAAQRLGAVTVPVDVDAATYNLDPEAVAAAVTPRTKVIMPVHMAGLMADMDALAKISADTGVPLLQDAAHAHGARWQGKRVGELDSIATFSFQNGKLMTAGEGGAVVFPDGETEKYETAFLRHSCGRPRDDRRYFHKIAGSNMRLNEFSASVLRAQLARLDEQIAVRDERWTLLSRLLGAIDGVVPQGGDVRADRNSHYMAMFRIPGLTEERRNALVDRLVEAGLPAFAAFRAIYRTDAFWELGAPDESVDAIARRCPNTDAISSDCVWLHHRVLLAGEPELHATAEIIADAVARA | soluble |
| MNASSAPQQQQQQQQPQQGQAPQQQQQGPPQHQYQQQRPFHGRVQNHMRGSGPFGNSNGYGRYTAPRGDQQHHDSTPLSSTNLYIRGLMPNTNDDLLREMCSKYGNIASTKAIMDKATNNCKGYGFVDFESPQAAAAAVDGLNTEGVQAQMAKLQQQEQDPTNLYIANLPLDFTEQMLETELNKFGMVISTRILRTPDNQSRGVGFARMDSKEKCEVIISALNGGRFDTMSKEGPALLIKQADTGRKSKHSMNNPEMLQRMQYPQVYQSYYGYHPAAVYQQHYDVNSLASQMGGMHVGGGNPQANGGGDMYGAHMYGQNAGGQGGQGVGQGGQGGNQQFYNPNNGRNKKYFQPMNPQ | not soluble |
| MNAVKIEKGVAQYIEHNLYYYFEYVRDIQRLKKDILFGRANYDENVGGGRGNLPSRPTERRTIELITHRRLERLEQIVHAIQTVYRSLSPEKQKAVQLKYWSGKSYTWEQVAREIGVSVRQLYRWRDQIIYDIAKLLGEVNSNS | not soluble |
| MNAWEVNFDGLVGLTHHYAGLSFGNEASTRHRFQVSNPRLAAKQGLLKMKALADAGFPQAVIPPHERPFIPVLRQLGFSGSDEQVLEKVARQAPHWLSSVSSASPMWVANAATIAPSADTLDGKVHLTVANLNNKFHRSLEAPVTESLLKAIFNDEEKFSVHSALPQVALLGDEGAANHNRLGGHYGEPGMQLFVYGREEGNDTRPSRYPARQTREASEAVARLNQVNPQQVIFAQQNPDVIDQGVFHNDVIAVSNRQVLFCHQQAFARQSQLLANLRARVNGFMAIEVPATQVSVSDTVSTYLFNSQLLSRDDGSMMLVLPQECREHAGVWGYLNELLAADNPISELKVFDLRESMANGGGPACLRLRVVLTEEERRAVNPAVMMNDTLFNALNDWVDRYYRDRLTAADLADPQLLREGREALDVLSQLLNLGSVYPFQREGGGNG | soluble |
| MNDDALPVHSTDLLDFDEDFIKIDAAICEYDSVGHAPQRKGESAFQWASVETACLALLKKAKDVRVAIWYLRACIARRGLSGLADGVRLLAELMSAPVEELHPRALPDESPGETLLIHLGWLAGPQFLHQLGSSRFEDRDATLNDLIGGRAAAIVEDRDYCVRANTLVHDIKDSLSRIRESVAVVEQELNLSRSLDLLSVAASRLARTDAGRAESESVAGEKPAHAEAGFSPAPDPQQPAAGPGGALRSRQEVGVALERIVEYFRLHEPSHPAPIFLSRIQRMLGAGFEEVMAELYPEAASLVAQLNRPQSSIK | not soluble |
| MNDSSLKKALSQNSISSAPRRPQKLGSVQSIVRNESDKNVPSPFEEITLSDDDEEAPAKKPVKCATCARDMTLWMNSRRDIHVKVCKAKQSEKEKETTRKSKTLTETIEKDDQVYEKPSSKTHLFEKPFEKPQELPKSWELSKNNVKFARIAEDDEENRKRKRPRSFAVVELAPKKCQCEVLTTLHSRFIDEFHSKSIKNQKKREEGVTEHAFQMKKMIEKISRYEQLSSDMQKVLDDNSEQLPTHIFITCSDGHRVKCQTMILKHRTSLIRLNPKSENIQVEHTKEVVKAWISFVFTANIEWNDDDKDGVRDLASKYGPVGLDLIVKNDKEEDLEKVDDVEDVVEPEAKIDSVVADPVEIEPTASHSDPIELDKSVNYFTSDDPFFGFGKAVENVEDDAEQIMEDKPHESVHSTPQKPTTNVTMDSFDEWSNQPSTNLPTTSNVITPIRNITSKAVFGSHVKILKTNDITPMPAFDSMEEAELKERMKEIGMRPKGKKAMIQILKKAYITLHPEICSGTPTIRPLVRSASLEKVSEQGGKGGRKTIKTKTLSERMIASPKKVSPKKQGVKNAISDETSKNVSNVSDDLDEDNDGDKTLNISNDEREVGKIWGDDVGDDEEDDDDMSASSTSGKHDLSALKLAFLTWLRSDQNTVLHEHILSLQPVSLEEMLIRLEKADGPLGRIGKGKLVKLLEMLKITYQLPQKTGRARGGYKRRL | not soluble |
| MNDTLPGRISRERRGHLLLLGLDRVAKRNAFDLPMLDDLVAALGEYEADDQLRCALLFAHGEHFTAGLDLANVGETFRQGWKLPEGAVDPWGTFGGRRPSKPLVVAVQGYCYTIGIELMLAADINLCASNARFAQLEVQRGILPFGGATLRMHQVAGWGNAMRWLLTGDEFDAHEAYRLGLVQEVTAPEDLLDHAIALAERVAAQAPLGVRATLGSARQALLEGEAVAAAALPEAARRLLDSEDAKEG | not soluble |
| MNEAEHSVEHPPVQGSHVEGGVVEHPDAKDFGSAAALPADPTWFKHAVFYEVLVRAFFDASADGSGDLRGLIDRLDYLQWLGIDCIWLPPFYDSPLRDGGYDIRDFYKVLPEFGTVDDFVALVDAAHRRGIRIITDLVMNHTSESHPWFQESRRDPDGPYGDYYVWSDTSERYTDARIIFVDTEESNWSFDPVRRQFYWHRFFSHQPDLNYDNPAVQEAMIDVIRFWLGLGIDGFRLDAVPYLFEREGTNCENLPETHAFLKRVRKVVDDEFPGRVLLAEANQWPGDVVEYFGDPNTGGDECHMAFHFPLMPRIFMAVRRESRFPISEIIAQTPPIPDMAQWGIFLRNHDELTLEMVTDEERDYMYAEYAKDPRMKANVGIRRRLAPLLDNDRNQIELFTALLLSLPGSPVLYYGDEIGMGDVIWLGDRDGVRIPMQWTPDRNAGFSTANPGRLYLPPSQDPVYGYQAVNVEAQRDTSTSLLNFTRTMLAVRRRHPAFAVGAFQELGGSNPSVLAYVRQVAGDDGDTVLCVNNLSRFPQPIELDLQQWTNYTPVELTGHVEFPRIGQVPYLLTLPGHGFYWFQLTTHEVGAPPTCGGERRL | soluble |
| MNECAFGTKDPVYLNYHDHVWGQPLYDSKALFKLLALESQHAGLSWLTILKKKEAYEEAFYDFEPEKVAQMTAQDIDRLMTFPNIVHHRKKLEAIVNQAQGYLKIEQAYGSFSKFLWSYVNGKPKDLQYEHASDRITVDDTATQLSKDLKQYGFKFLGPVTVFSFLEAAGLYDAHLKDCPSKPKHN | soluble |
| MNEEGGYLGAMTYQCLYSPVMEKIKQQHRDDPRASLALNKLHTALTTCEQASPSFLYDFTKVLLDDSELSVNLQESYLRMHDTSPTNDLIVSGYEQNADYKELTKRAIELRRVLSRVPEEMSDRHAFLETIKLIASSIKKLLEAINAVYRIVPLTAQPAVEKRKREFVHYSKRFSNTLKTYFKDQNANQVSVSANQLVFQTTMIVRTINEKLRRG | not soluble |
| MNEKQADTLLNVPEIVKRAKIALNLKRDSELASYLGVARATLSNWCARNSIDFPLLLNKLRHVDYNWLLTGKGSPLHDPKSFDNGKIRGEVETIHNSKTTEAIDDRSVTLYDITAAANLRTLLSDKRQYALGKILIPSIPACDGAIFVNGDSMYPILKSGDIVGFKGINNFSNVIYGEMYIVAFHLDGDQYLTVKYVNRSEKEGYVKLVSYNPHHEPMDLPVDTIQDMAIVKFSIRKNMMM | not soluble |
| MNEKWIVERAEREGGRLWLYVNDAPVPLARVTPKRHMLVDSDALAFAYILETDDRFLYVMVPKLWWPELKAALDAEEPVWLRCGERTLELEQFHDELSYLLENIRGNANYGEALEQAVQDVFFEQ | not soluble |
| MNELINGNAIKMTSIEIAELVESRHSNVKVSIDRLVKRGVIKPPALQHTNIINDLGVITGKRDFYVFEGEKGKRDSIIVVAQLSPEFTARLVDRWRELEEAAVNIPKTLPEALRLAADLAEQKMQLENQLAIAAPKVEFADRVGEASGILIGNFAKVVGIGPNKLFAWMRDHKILIASGARRNVPMQEYMERGYFTVKETAVNTNHGIQISFTTKITGRGQQWLTRKLLDNGMLKVTGEAA | not soluble |
| MNELRDPGDAVIAIVGGGASGVLVALQLLRQAVAPVQIVVIEPHAVLGEGVAYSTARPEHLLNVPAARMSALVEAPQDFVDYLRAHACCPELEDARLPQAFVGRRHYAPYLRDRLQTARVQSPATLIVHSARVQTLHADADGALLQLDDGQTLHATSVVLAVGNALRPLPLRGATGLSATQRLEAWDTEAVAALPQDAAVCIVGSGLSMADTVVTLAAQAHRGAVHVVSRHGLLPLPQAHCVAADFDPQPLLALSLRARMRSLRQHAQVAMAQGLPWQGVMERVRPLNQVLWQTLSVADQRRFLRHVVRYWDVHRHRIAAPVHAQLQAMRARGQLQLHRARLDVAFQAGACVRLSAGASAGHALQLDVQTLVNATGVEMRVQAMRNPLLQQLLGQGIAVAGSHGIGVDTAADGCLIDAEGHANPRLRVIGSLRIGSLWESLAVPELREQAAAIARDVLALLGR | not soluble |
| MNEREAKMYELEFPAPDVASDGVDGPTLIIAMQGYADAGLAVEASADHLLSALEHRPVAVFNNDELIDYRSRRPAVTIDHNIVVDANELKLSMDVLRDSNGTPFLLLSGPEPDLRWDAFSQAVADLVRRFGVRRTICIYAAPMTVPHTRPLIVSAHGNSLDLIKHHFSIDSKVTIPGSASLHIERLLNKNNIDVAGYTAHVPHYLSASAYPLATLKLLEAITTSTNLDFPLKTLEADAQKTALQVEEQVAGSQEIESVVKILEQQYDEELEKYRERNPKALEIAEDDLPDADELGEEFERFLANIDEENGSDD | not soluble |
